Calcium flux EC50 against unmutated CXCL12 data for 3 substances are collected here from patent publication US9908923.

In this assay the target is CXCR4 (full-length receptor) (UniProt P61073). Nature of the assay: cell-based or functional assay.
CXCR4 (full-length receptor), sequence (P61073 whole entry): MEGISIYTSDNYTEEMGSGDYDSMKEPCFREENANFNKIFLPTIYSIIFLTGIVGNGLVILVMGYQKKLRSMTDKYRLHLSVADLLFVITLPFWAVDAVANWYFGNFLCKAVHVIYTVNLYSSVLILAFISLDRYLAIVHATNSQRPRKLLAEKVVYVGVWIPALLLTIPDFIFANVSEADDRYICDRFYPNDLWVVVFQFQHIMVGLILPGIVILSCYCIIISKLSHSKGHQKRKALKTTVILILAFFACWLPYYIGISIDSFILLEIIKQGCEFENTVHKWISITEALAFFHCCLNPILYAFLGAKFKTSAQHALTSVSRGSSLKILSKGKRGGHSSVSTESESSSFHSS
As for “CXCL12 Asn33 to alanine mutant (from UniProt P48061 22-89) (ligand)”, the calcium flux EC50 against unmutated CXCL12 stood at 6 fold.

Consider “CXCL12 Asn33 to arginine mutant (from UniProt P48061 22-89) (ligand)”, for which the calcium flux EC50 against unmutated CXCL12 turned out to be 6 fold.

Regarding “CXCL12 Asn33 to glutamine mutant (from UniProt P48061 22-89) (ligand)”, the calcium flux EC50 against unmutated CXCL12 worked out at 6 fold.
